According to the Human Domainome abundance scans (Beltran et al. 2025):
± gives the uncertainty stated by the source.

B1: DNA topoisomerase 3-alpha, residues 812 to 851; numbered along this chain, Q13472 (parent)
chain: TCNCGQEAVLLTVRKEGPNRGRQFFKCNGGSCNFFLWADS
B2: Spectrin alpha chain, erythrocytic 1, residues 979 to 1036; numbered along this chain, P02549 (parent)
chain: EQRVMALYDFQARSPREVTMKKGDVLTLLSSINKDWWKVEAADHQGIVPAVYVRRLAH

Variants of: B1
Assay: abundance fitness (aPCA) (normalised: wild type 0, dead -1); higher = more abundant; growth selection in yeast, the domain comes from the species named
Conditions: Homo sapiens

Variant	abundance fitness
A38V	-0.295 ± 0.13
A38P	-0.659 ± 0.13
A38D	-0.371 ± 0.21
D39P	-0.171 ± 0.17
D39R	-0.838 ± 0.49
D39G	-0.227 ± 0.083
D39E	-0.105 ± 0.088
D39C	-0.205 ± 0.14
D39M	-1.03 ± 0.22
D39L	-0.93 ± 0.15
D39Q	-0.63 ± 0.42
G21I	-0.787 ± 0.28
G21R	-0.643 ± 0.13
G21S	-0.469 ± 0.11
G21N	-0.208 ± 0.11
G21V	-0.763 ± 0.11
G21A	-0.367 ± 0.083
G21Q	-0.614 ± 0.14
G21W	-0.89 ± 0.46
R22W	-0.629 ± 0.077
R22A	-0.401 ± 0.13
R22G	-0.565 ± 0.081
R22K	0.007 ± 0.095
R22T	-0.438 ± 0.17
R22N	-0.459 ± 0.36
R22M	-0.677 ± 0.2

Variant	abundance fitness
R22Q	-0.623 ± 0.13
R22L	-0.322 ± 0.079
R22S	-0.513 ± 0.086
R20S	-0.167 ± 0.049
R20P	-0.227 ± 0.12
R20E	-0.039 ± 0.076
R20C	-0.549 ± 0.32
R20H	0.199 ± 0.27
R20D	0.22 ± 0.2
R20Y	0.007 ± 0.099
R20W	-0.271 ± 0.086
R20G	-0.171 ± 0.072
Q23W	-0.574 ± 0.14
Q23H	0.03 ± 0.14
Q23T	-0.219 ± 0.19
Q23G	-0.21 ± 0.053
Q23D	0.021 ± 0.28
N19M	0.085 ± 0.14
N19G	-0.537 ± 0.14
N19E	-0.222 ± 0.19
N19L	-0.195 ± 0.073
N19W	-0.454 ± 0.13
N19T	-0.075 ± 0.071
N19R	-0.777 ± 0.49
N19V	-0.54 ± 0.1
N19S	-0.168 ± 0.097

Variant	abundance fitness
N19D	0.069 ± 0.046
N19H	0.157 ± 0.1
F34R	-0.374 ± 0.2
F34Q	-0.44 ± 0.3
F34L	-0.703 ± 0.15
F34K	-0.576 ± 0.15
F34H	-0.396 ± 0.22
F34E	-0.626 ± 0.17
C27H	-0.753 ± 0.35
C27T	-0.86 ± 0.25
C27V	-1.09 ± 0.25
C27M	-0.789 ± 0.25
C27L	-0.984 ± 0.19
C27G	-1.19 ± 0.41
C27A	-0.44 ± 0.15
C27R	-1 ± 0.36
C27E	-0.53 ± 0.38
C32S	-0.33 ± 0.41
C32V	-0.977 ± 0.25
C32P	-1.36 ± 0.4
C32R	-0.934 ± 0.26
C32T	-0.854 ± 0.26
C32G	-1.07 ± 0.25
G30W	-0.287 ± 0.36
G30V	-0.574 ± 0.12
G30A	-0.381 ± 0.2

Variant	abundance fitness
G30S	-0.304 ± 0.069
G30Q	-0.265 ± 0.071
G30L	-0.473 ± 0.14
W37G	-0.48 ± 0.048
W37A	-0.477 ± 0.089
W37T	-0.483 ± 0.13
W37R	-0.51 ± 0.085
W37P	-0.239 ± 0.064
W37V	-0.19 ± 0.078
W37K	-0.29 ± 0.13
W37L	-0.52 ± 0.23
F35Q	-0.241 ± 0.09
F35V	-0.352 ± 0.14
F35P	-0.388 ± 0.16
F35K	-0.014 ± 0.11
F35W	-0.246 ± 0.11
F35L	-0.444 ± 0.076
F35E	-0.447 ± 0.16
K26M	-0.232 ± 0.12
K26C	-0.13 ± 0.17
K26S	-0.011 ± 0.11
K26G	-0.004 ± 0.056
K26V	-0.266 ± 0.063
K26A	-0.001 ± 0.095
K26R	0.025 ± 0.12
K26L	-0.318 ± 0.096

Variant	abundance fitness
L36K	0.189 ± 0.081
L36A	0.028 ± 0.045
L36Y	-0.265 ± 0.14
L36R	0.013 ± 0.058
L36M	0.022 ± 0.078
L36W	-0.134 ± 0.086
L36V	-0.255 ± 0.09
L36F	0.063 ± 0.35
L36S	0.134 ± 0.17
L36E	-0.013 ± 0.066
L36G	-0.177 ± 0.054
L36H	-0.22 ± 0.17
N28R	0.131 ± 0.12
N28W	0.079 ± 0.2
N28I	0.137 ± 0.3
N28T	-0.043 ± 0.13
N28V	-0.136 ± 0.078
N28S	-0.09 ± 0.047
N28A	0.075 ± 0.069
N28L	-0.195 ± 0.18
F25V	-0.509 ± 0.076
F25R	-0.412 ± 0.14
F25M	-0.149 ± 0.066
F25W	-0.123 ± 0.084
F25K	-0.413 ± 0.14
G29D	0 ± 0.12

Variant	abundance fitness
G29A	0.121 ± 0.075
G29T	-0.371 ± 0.22
G29P	-0.571 ± 0.36
G29V	-0.074 ± 0.068
G29R	-0.093 ± 0.059
N33W	-0.572 ± 0.11
N33V	-0.7 ± 0.11
N33S	-0.057 ± 0.062
N33G	-0.072 ± 0.13
N33T	-0.075 ± 0.079
N33A	-0.12 ± 0.057
N33L	-0.892 ± 0.37
S31K	0.112 ± 0.08
S31H	0.092 ± 0.088
S31W	-0.273 ± 0.11
S31D	0.077 ± 0.094
S31Q	0.055 ± 0.099
S31M	-0.13 ± 0.085
S31C	-0.239 ± 0.076
S31L	-0.176 ± 0.073
S31A	-0.072 ± 0.073
S31R	0.065 ± 0.051
S31T	0.114 ± 0.11
S31I	-0.209 ± 0.27
S31G	-0.071 ± 0.068

Variants of: B2
Assay: as above
Conditions: Homo sapiens

Variant	abundance fitness
A57D	0.507 ± 0.19
V18L	0.138 ± 0.1
D24Y	-0.805 ± 0.3
E40T	-0.222 ± 0.19
T19N	-0.122 ± 0.33
Y52A	0.089 ± 0.13
S31N	-0.224 ± 0.5
K34V	-0.741 ± 0.19
N33L	-0.694 ± 0.29
L29K	0.119 ± 0.11
V39E	-0.332 ± 0.18
P15C	-0.411 ± 0.25
